Data reported in patent publication US20250381241A1 (Dana-Farber, published 2025).

Target: T1, WDR43 (human, UniProt Q15061 1-677, limits assumed)
T1 construct: Called a core transcriptional assembly factor at TSS; Endogenous protein from lysate
T1 sequence (looked up): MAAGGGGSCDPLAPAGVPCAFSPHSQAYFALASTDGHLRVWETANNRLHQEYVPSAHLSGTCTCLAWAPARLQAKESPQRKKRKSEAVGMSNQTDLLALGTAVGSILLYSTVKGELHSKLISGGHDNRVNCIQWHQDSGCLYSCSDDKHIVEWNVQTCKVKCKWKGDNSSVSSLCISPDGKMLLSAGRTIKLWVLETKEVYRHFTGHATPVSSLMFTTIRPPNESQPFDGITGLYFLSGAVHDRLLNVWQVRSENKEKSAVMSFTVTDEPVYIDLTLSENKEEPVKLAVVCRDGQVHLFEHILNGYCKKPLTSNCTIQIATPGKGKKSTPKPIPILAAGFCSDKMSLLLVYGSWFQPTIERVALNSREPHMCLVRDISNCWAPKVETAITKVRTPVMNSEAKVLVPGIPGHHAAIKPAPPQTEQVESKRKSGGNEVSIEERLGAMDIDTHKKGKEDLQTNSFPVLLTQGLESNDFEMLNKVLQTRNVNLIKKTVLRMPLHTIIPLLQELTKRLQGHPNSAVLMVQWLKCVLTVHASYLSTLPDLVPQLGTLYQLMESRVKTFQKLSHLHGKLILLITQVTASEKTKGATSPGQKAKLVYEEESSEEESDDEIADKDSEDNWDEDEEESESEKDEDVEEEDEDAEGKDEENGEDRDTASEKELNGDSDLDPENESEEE
Experiment: co-immunoprecipitation of ectopically expressed HA-tagged RIOK2 with monoclonal anti-HA antibody beads, then LC-MS/MS; spectral counts normalised to the immunoprecipitated HA-RIOK2, fold change with respect to WT
Method: For collection of cellular lysates, lysis was similarly performed as described above. 5% of the supernatant was saved as Input, and pre-washed monoclonal anti-HA antibody tagged-agarose beads slurry (A2095, Sigma Aldrich) was added to the rest of the supernatant and incubated at 4° C. on a rocker O/N. The beads were washed with RIPA lysis buffer, resuspended in 2× laemmli buffer, boiled at 95° C. for 10 minutes, and immediately loaded for SDS-PAGE separation. Electrophoresis was performed until the proteins ran 1/6th of the entire gel size. The gel was Coomassie stained for 1 h at 25° C., de-stained at 4° C. O/N, and were cut with sterile blades, washed with MS-grade acetonitrile solution and submitted for Mass Spectrometry analysis at BIDMC Mass Spectrometry Core. […]
Gel separated protein samples were reduced with 55 mM DTT, alkylated with 10 mM iodoacetamide (Sigma-Aldrich), and digested O/N with TPCK modified trypsin/LysC (Promega) at pH=8.3. […] 3 μL of the digested protein samples were analyzed in positive ion mode via microcapillary tandem mass spectrometry (LC-MS/MS) using a high resolution hybrid QExactive HF Orbitrap Mass Spectrometer (Thermo Fisher Scientific) via HCD with data-dependent analysis (DDA) with 1 MS1 scan followed by 8 MS2 scans per cycle (Top 8). […]

B1: ΔTAD2 (enzyme, not shown: small tags and cut ends)
chain: MGKVNVAKLRYMSRDDFRVLTAVEMGMKNHEIVPGSLIASIASLKHGGCNKVLRELVKHKLIAWERTKTVQGYRLTRQVVESVGNQMGVGKESDIYIVANEEGQQFALKLHRLGRTSFRNLKNKRDYHKHRHNVSWLYLSRLSAMKEFAYMKALYERKFPVPKPIDYNRHAVVMELINGYPLCQIHHVEDPASVYDEAMELIVKLANHGLIHGDFNEFNLILDESDHITMIDFPQMVSTSHPNAEWYFDRDVKCIKDFFMKRFSYESELFPTFKDIRREDTLDVEVSASGYTKEMQADDELLHPLGPDDKNIETKEGSEFSFSDGEVAEKAEVYGSENESERNCLEESEGCYCRSSGDPEQIKEDSLSEESADARSFEMTEFNQALEEIKGQVVENNSVTEFSEEKNRTENYNRQDGQRVQGGVPAGSDEYEDECPHLIALSSLNREFRPFRDEENVGAMNQYRTRTLSITSSGSAVSCSTIPPELVKQKVKRQLTKQQKSAVRRRLQKGEANIFTKQRRENMQNIKSSLEAASFWGE
notes: The text defines it as N-terminal HA-tagged RIOK2 with amino acids 77-90 deleted; also called HA-ΔTAD2
  binding result: no binding
